Reference: patent publication US20240263208A1, “CYTOCHROME P450 ENZYME” (HYPHA DISCOVERY LTD., priority 2021, published 2024)
Numbering of substitutions follows the chain as printed. Names may count otherwise.

B1: SeuC10M1: P450SeuC10 with T109R mutation, SEQ ID NO: 6 (protein)
chain: MKIGTTHLTRLRGLSMTELTDITGPAAQAETVAFPQDRTCPYHPPTGYDPLRDGRPLSRVTLYDGREVWLVTAQATARALLADPRLSTDRRRDGFPVPTPRFAAGRDRRLALLGLDDPEHHRQRRLLIPSFTLKRATAQRPWIQRIVDELLDAMIARGPVADLVSAFALPVPSMVICELLGVPYADHEFFEEQSRRLLRGPTGADTTDARDRLEAYLGDLIDAKAKEAEPGDGILDDLVHNRLRAGELDRSVLVSLAVILLVAGHETTANMISLGTYTLLQHPERLAELRADPSLLPAVVEELLRMLSIAEGLQRLALEDIEIDGITIRAGEGVLFSTSVINRDTAVYEDPDDLDFHRADRHHVAFGFGIHQCLGQNLARAELEIALGSLFTRLPGLRLAAPAEEIPFKPGDTVQGMLELPVTW
modifications: SeuC10M1
B2: SeuC10M12: P450SeuC10 with L198M mutation, SEQ ID NO: 28 (protein)
chain: B1 chain with R109T, L198M
modifications: SeuC10M12
B3: SeuC10M14: P450SeuC10 with L198V mutation, SEQ ID NO: 32 (protein)
chain: B1 chain with R109T, L198V
modifications: SeuC10M14
B4: SeuC10M19: P450SeuC10 with L198Y mutation, SEQ ID NO: 42 (protein)
chain: B1 chain with R109T, L198Y
modifications: SeuC10M19
B5: SeuC10M18: P450SeuC10 with L198H mutation, SEQ ID NO: 40 (protein)
chain: B1 chain with R109T, L198H
modifications: SeuC10M18
B6: SeuC10M17: P450SeuC10 with L198D mutation, SEQ ID NO: 38 (protein)
chain: B1 chain with R109T, L198D
modifications: SeuC10M17
B7: SeuC10M26: P450SeuC10 with T109I mutation, SEQ ID NO: 56 (protein)
chain: B1 chain with R109I
modifications: SeuC10M26
B8: SeuC10M8: P450SeuC10 with L198I mutation, SEQ ID NO: 20 (protein)
chain: B1 chain with R109T, L198I
modifications: SeuC10M8
B9: SeuC10M16: P450SeuC10 with L198N mutation, SEQ ID NO: 36 (protein)
chain: B1 chain with R109T, L198N
modifications: SeuC10M16
B10: SeuC10M27: P450SeuC10 with T109V mutation, SEQ ID NO: 58 (protein)
chain: B1 chain with R109V
modifications: SeuC10M27

What was measured:
[1] = Oxidase activity testing, lyophilised recombinant P450/ferredoxin SeuF08/ferredoxin reductase SCF15A against ambroxide; assay type: biochemical; conditions: for +16 Da (1.50 min) 253 m/z / +16 Da (1.60 min) 253 m/z / +16 Da (2.04 min) 253 m/z: oxidised ambroxide product; for +16 Da (1.50 min) 253 m/z / +16 Da (1.60 min) 253 m/z / +16 Da (2.04 min) 253 m/z / Ambroxide (2.22 min) 237 m/z: relative MS peak area; for Ambroxide (2.22 min) 237 m/z: remaining substrate, 0.1 mg/ml ambroxide, 27° C., 16-20 hours; for Average % conversion: substrate ambroxide, relative MS peak areas
Protocol: (§1) Lyophilised material of recombinant P450, ferredoxin and ferredoxin reductase proteins was made as described in Example 4 and reconstituted in high purity water to the original volume. Biocatalysis was performed with shaking incubation at 27° C. in the following conditions: 100 mM potassium phosphate pH 8.0, 5 mM MgCl2 (both present in the reconstituted enzyme preparation) and 0.1 mg/ml substrate compound such as ambroxide (Sigma-Aldrich, UK), carbamazepine (Sigma-Aldrich, UK), diclofenac (Sigma-Aldrich, UK), tivantinib (MedChemtronica, Sweden), clarithromycin (Tokyo Chemical Industry, Japan), sclareol (Sigma-Aldrich, UK), celecoxib (LC Laboratories, USA), buparvaquone (Sigma-Aldrich, UK), BIRB796 (MedChemExpress, USA), vanoxerine (CiVentiChem, USA), valsartan (Tokyo Chemical Industry, Japan), ruxolitinib (LC Laboratories, USA), perindopril (Selleckchem, USA), solifenacin (Key Organics, UK), 7-ethoxycoumarin (Tokyo Chemical Industry, Japan), tofacitinib (LC Laboratories, USA), ebastine (Key Organics, UK), efavirenz (Key Organics, UK), propanalol (Sigma-Aldrich, UK) and tolbutamide (Key Organics, UK).
(§2) Concentrations of P450, ferredoxin and ferredoxin reductase were as extracted (Example 4). Reactions were initiated by addition of 10× stock of cofactor mixture (50 mM G6P, 10 mM NADP+, 10 UN/ml G6PDH) to provide a final volume of e.g., 10 μl to 90 μl for 100 μl total reaction volumes. After 16-20 hours, reactions were extracted with an equal volume of acetonitrile, centrifuged to remove precipitated proteins and conversion assessed by UPLC-MS analysis.
(§3) UPLC Data were Obtained as Follows: • Column: Acquity UPLC BEH Shield RP18 1.7 μm 2.1 mm i.d. 50 mm length • Solvents: H2O, B: Acetonitrile, both with 0.1% Formic acid • Flow rate: 1.0 ml/min • Detector: Waters Acquity UPLC PDA (UV-Vis detection) and Waters Acquity UPLC QDA (MS)
(§4) To confirm the identities of reaction products where known, their chromatographic retention time, mass and ultraviolet spectra were compared with those of authentic metabolite standards.
Representative results for the % conversions of ambroxide to oxidised (+16 Da) products for single point mutants at position T109 are shown in Table 2 below.

[2] = Oxidase activity testing against carbamazepine; assay type: biochemical; conditions: for +16 Da (1.18 min) 253 m/z: 2-hydroxycarbamazepine; for +16 Da (1.18 min) 253 m/z / +16 Da (1.14 min) 253 m/z / Parent (1.31 min) 237 m/z: relative MS peak area; for +16 Da (1.14 min) 253 m/z: carbamazepine epoxide; for Parent (1.31 min) 237 m/z: remaining carbamazepine, 0.1 mg/ml, 27° C., 16-20 hours; for Average % conversion: substrate carbamazepine, relative MS peak areas
Protocol: as §1, §2, §3, §4
Representative results for the % conversions of carbamazepine to oxidised (+16 Da) products for single point mutants at position L198 are shown in Table 3 below.

Molecule | +16 Da (1.50 min) 253 m/z [1] [%] | +16 Da (1.60 min) 253 m/z [1] [%] | +16 Da (2.04 min) 253 m/z [1] [%] | Ambroxide (2.22 min) 237 m/z [1] [%] | Average % conversion [1] [%] | +16 Da (1.18 min) 253 m/z [2] [%] | +16 Da (1.14 min) 253 m/z [2] [%] | Parent (1.31 min) 237 m/z [2] [%] | Average % conversion [2] [%]
B1 | 40.7 | 0.0 | 0.0 | 59.3 | 40.7 |  |  |  | 
B2 |  |  |  |  |  | 0.0 | 40.5 | 59.5 | 40.5
B3 |  |  |  |  |  | 0.0 | 43.7 | 56.3 | 43.7
B4 |  |  |  |  |  | 0.0 | 3.9 | 96.1 | 3.8
B5 |  |  |  |  |  | 0.0 | 14.6 | 85.4 | 14.6
B6 |  |  |  |  |  | 0.0 | 3.2 | 96.8 | 3.2
B7 | 58.3 | 0.0 | 0.0 | 41.7 | 58.3 |  |  |  | 
B8 |  |  |  |  |  | 0.0 | 35.3 | 64.7 | 35.3
B9 |  |  |  |  |  | 0.0 | 1.9 | 98.1 | 1.9
B10 | 58.6 | 0.9 | 2.3 | 38.2 | 61.7 |  |  |  | 
